From publication PMC12408340 (Nature, 2025) come the findings set out here.

Series [1] deals with FCoV-23 S domain B (receptor-binding domain, RBD), residues 529-677 (FCoV-23 (feline coronavirus)). As to the kind of experiment: BLI; […]; global 1:1 fit; […]. In general terms: BLI is a label-free optical method that tracks binding on a fibre tip over time.
The target of series [2] is T1, CCoV-HuPn-2018 S domain B (receptor-binding domain, RBD), residues 523-671 (CCoV-HuPn-2018 (canine coronavirus)).
T1 chain: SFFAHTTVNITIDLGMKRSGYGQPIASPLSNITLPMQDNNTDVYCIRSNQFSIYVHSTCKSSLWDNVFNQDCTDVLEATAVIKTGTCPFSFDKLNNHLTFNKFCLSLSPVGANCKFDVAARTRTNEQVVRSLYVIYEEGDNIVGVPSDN
As to the kind of experiment: BLI.

The series “cryo-EM structure” deals with the molecule itself. In words: cryo-EM structure.

What is called Kd is a measure of binding affinity in units of concentration. Read a low Kd as a tighter complex. In general, stoichiometry N refers to a count of units in the complex or per binding partner.

With “Felis catus APN ectodomain fused to a human Fc fragment (FcAPN-Fc) (from UniProt P79171 64-967) (Fc fusion)”, the Kd in series [1] was 11 nM. In turn, “Canis lupus familiaris APN ectodomain fused to a human Fc fragment (CfAPN-Fc) (from UniProt P79143 71-975) (Fc fusion)” returned a Kd in series [1] of 1.3 nM.

B1: Felis catus APN ectodomain fused to a human Fc fragment (FcAPN-Fc) (Fc fusion)
chain: DQSKPWNVYRLPKTLIPDSYNVTLRPYLTPNNKGLYVFTGTNIVRFTCKESTNIVIIHSKRLNYTSHQGHMVALSGVGGFHPQPVIVRTELVELTEYLVVHLQEPLVAGRQYEMNSEFQGELADDLAGFYRSEYMENGVKKVLATTHMQATEARKSFPCFDEPAMKATFNITIIHPNNLVALSNMLPRGPSVPFGEDPTWKVTEFETTPIMSTYLLAYIVSEFSYVETRAPSGVLIRIWARPSAINQGHGDYALKVTGPILDFFSQHYDTPYPLNKSDQIALPDFNAGAMENWGLVTYRESALLYDRQSSSSGNQERVVTVIAHELAHQWFGNLVTLEWWNDLWLNEGFASYVEYLGADFAEPTWNLKDLMVLNDVYRVMAVDALASSHPLSTPASEINTPAQISEVFDSISYSKGASVLRMLSNFLTEDLFKMGIASYLHTYKYGNTIYLNLWEHLQQVVDKQPTIKLPDTVSAIMDRWILQMGFPVITVDTQTGTISQQHFLLDPQSVVTRPSQFNYLWIVPISSVRSGSPQAHYWLPGVEKAQNDLFKTTANDWVLLNLNVTGYYLVNYDNENWKKIQTQLQTDLSVIPVINRAQVIHDAFNLASAQKVPVTLALNNTLFLIQETEYMPWQAALSSLSYFKLMFDRSEVYGPMKRYLKKQVTPLFNHFERVTKNWTDHPQTLMDQYSEINAVSTACSYGVPECEKLAATLFAQWKKNPQNNPIHPNLRSTVYCNAIAQGGEEEWNFVWEQFLKAELVNEADKLRGALACSNQVWILNRFLSYTLDPNLIRKQDVTSTLSSISSNVVGQTLVWDFVQSNWKKLFQDYGTGSFSFSNLIQAVTRRFSTEFELQQLEQFKKNNMDTGFGSATRALEQALEKTKANLKWVKENKDVVLRWFTENS
As to B1, the equilibrium dissociation constant (Kd) in series [2] was 28 nM. This lies in the double-digit nanomolar range.

B2: Felis catus APN ectodomain dimer without the Fc fusion (FcAPN) (domain or fragment)
chain: B1 chain
B2: the “stoichiometry N” value in “cryo-EM structure” amounted to 2.

B3: Canis lupus familiaris APN ectodomain fused to a human Fc fragment (CfAPN-Fc) (Fc fusion)
chain: LAQSKPWNHYRLPKTLIPSSYNVTLRPYLTPNSNGLYTFKGSSTVRFTCKESTSMIIIHSKKLNYTNIQGQRVALRGVGGSQAPAIDRTELVEVTEYLVVHLREPLQVNSQYEMDSKFEGELADDLAGFYRSEYTENGVKKVLATTQMQAADARKSFPCFDEPAMKATFNITLIHPSNLVALSNMLPRGPSVPFTEEPNWNVTEFETTPIMSTYLLAYIVSEFKNVQENTPSNVLIRIWARPSAMDQGHGNYALRVTGPILDFFSRHYDTPYPLNKSDQIALPDFNAGAMENWGLVTYRESALLYDPQSSSIGNKERVVTVIAHELAHQWFGNLVTLEWWNDLWLNEGFASYVEYLGADYAEPTWNLKDLIVLNEVYRVMAVDALASSHPLSSPASEVNTPAQISEVFDSISYSKGASVLRMLSSFLTEDLFKKGVASYLHTFAYQNTIYLDLWNHLQWALGNQTAINLPYTVNAIMDRWILQMGFPVVTVDTTTGTLSQKHFLLDPQSNVTRPSKFNYLWIIPISSVKSGTQQAHYWMPDNAKVQNDLFKTTGDEWVLLNLNVTGYYLVNYDQNNWKKIHTQLQTDLSVIPVINRAQVIHDTFDLASAQIVPVTLALNSTLFLNQETEYMPWEAALSSLSYFKLMFDRSEVYGPMKNYLRKQVTPLFNHFEKITQNWTDHPQTLTEQYNEINAVSTACTYGVPKCKDLVSTLFAEWRKNPQNNPIYPNLRSTVYCNAIAQGGEEEWNFVWEQFRNTSLVNEADKLRSALACSTQVWILNRYLSYTLNPEFIRKQDVISTLSSIASNVIGQSLAWDFIQSNWKKLFEDYGTGSFSFSNLIQAVTRRFSTEFELQQLEQFKANNMDTGFGSGTRALEQALEKTKANIKWVKENKEAVLQWFRENSQ
In turn, B3 yielded a Kd in series [2] of 2.6 nM.
